In patent publication US11274129B2, “Methods for protein tyrosine phosphorylation profiling with variant SH2 domains” (priority 2016, dated 2022):

System: mixture of 40 different pTyr-including peptides derived from ITRMs
Experiment: Capture of pTyr-including peptides from a mixture of ITRM peptides by QuadM-TrM tandem Superbinder versus TrM human Src SH2 Superbinder, scheduled PRM
Type: binding
Settings: for (QT-TrM)/mean: QuadM-TrM tandem vs TrM human Src SH2 Superbinder, PRM peak area
From the text: A QuadM-TrM tandem Superbinder (SEQ ID NO: 15) was produced in E. Coli by expressing a recombinant DNA that contained the gene encoding the QuadM human Src Superbinder (SEQ ID NO: 12) in tandem with the gene encoding the TrM human Src Superbinder (SEQ ID NO: 5). Equal molar amounts (200 pmole) of the QuadM-TrM tandem Superbinder and the TrM human Src SH2 Superbinder were used to capture pTyr-including peptides from a mixture of 40 different pTyr-including peptides (200 fmole each) derived from ITRMs. The isolated peptides were identified by scheduled PRM and quantified based on the corresponding MS peak area.
Shown are the relative preferences of each pTyr-including peptide for the QuadM-TrM tandem Superbinder versus the TrM human Src SH2 Superbinder, as defined by the value of “(QT-TrM)/Mean”, where “QT” represents the amount of pTyr-including peptide captured by the QuadM-TrM tandem Superbinder, “TrM” represents the amount of pTyr-including peptide captured by the TrM human Src SH2 Superbinder, and “Mean” represents the mean amount of pTyr-including peptide captured by both the QuadM-TrM tandem Superbinder and the TrM human Src SH2 Superbinder. Yellow and blue shaded boxes indicate hydrophobic and hydrophilic residues, respectively, at the pTyr+3 position in the sequence of the pTyr-including peptide.

B1: QuadM-TrM tandem Superbinder: QuadM human Src Superbinder in tandem with the TrM human Src Superbinder in a single protein (protein)
chain: DSIQAEEWYFGKITRRESERLLLNAENPRGTFLVRESETVKGAYALSVSDFDNAKGLNVRHYLIRKLDSGGFYIWSRTQFNSLQQLVAYYSKHADGLSHRLTTVSPTSKGGSGGSMDSIQAEEWYFGKITRRESERLLLNAENPRGTFLVRESETVKGAYALSVSDFDNAKGLNVRHYLIRKLDSGGFYITSRTQFNSLQQLVAYYSKHADGLSHRLTTVSPTSK
modifications: SH2 protein domain; QuadM-TrM human Src SH2 tandem domain
Q: Which “capture of pTyr-including peptides relative to the TrM human Src Superbinder” value (200 pmole Superbinder, 200 fmole each peptide) does the source give for B1 here?
A: The value was “improved capture of pTyr-including peptides”.

Q: What about the “(QT-TrM)/mean” value (peptide ARFGAP2_pY445 EVDAEpYEAR) of the same molecule?
A: Its value is 0.3.

Q: And the “(QT-TrM)/mean” value (peptide ARHGAP15_pY219 SSSTELLSHpYDSDIK)?
A: The value was 0.3.

Q: What about the “(QT-TrM)/mean” value (peptide ARHGEF6_pY644 KPSEEEpYVIR) of the same molecule?
A: Its value is 1.2.

Q: And the “(QT-TrM)/mean” value (peptide ARID1A_pY229 SAYPPPAPApYALSSPR)?
A: Its value is 0.3.

Q: What about the “(QT-TrM)/mean” value (peptide ASNS_pY216 DVPLHALpYDNVEK) of the same molecule?
A: The value was 0.3.

Q: What about the “(QT-TrM)/mean” value (peptide C9orf78_pY277 ATDDpYHYEK) of the same molecule?
A: The value was 0.6.

Q: And the “(QT-TrM)/mean” value (peptide CD3D_pY160 DDAQpYSHLGGNWAR)?
A: The value was 0.3.

Q: What about the “(QT-TrM)/mean” value (peptide CD3E_pY188 ERPPPVPNPDpYEPIR) of the same molecule?
A: The value was 0.5.

Q: What about the “(QT-TrM)/mean” value (peptide CD3E_pY199 DLpYSGLNQR) of the same molecule?
A: The value was 0.0.

Q: What about the “(QT-TrM)/mean” value (peptide CD3G_pY160 QTLLPNDQLpYQPLK) of the same molecule?
A: Its value is 0.2.

Q: What about the “(QT-TrM)/mean” value (peptide CD3G_pY171 EDDQpYSHLQGNQLR) of the same molecule?
A: The value was 0.0.

Q: What about the “(QT-TrM)/mean” value (peptide CD28_pY206/209 HpYQPpYAPPR) of the same molecule?
A: Its value is 0.3.

Q: What about the “(QT-TrM)/mean” value (peptide CD28_pY218 DFAApYR) of the same molecule?
A: The value was 1.3.

Q: And the “(QT-TrM)/mean” value (peptide CD84_pY296 IpYDEILQSK)?
A: Its value is −0.1.

Q: And the “(QT-TrM)/mean” value (peptide CD84_pY316 EEPVNTVpYSEVQFADK)?
A: The value was 0.1.

Q: And the “(QT-TrM)/mean” value (peptide CD247_pY72 SADAPAYQQGQNQLpYNELNLGR)?
A: Its value is 1.5.

Q: And the “(QT-TrM)/mean” value (peptide CD247_pY111 NPQEGLpYNELQK)?
A: The value was 0.0.

Q: What about the “(QT-TrM)/mean” value (peptide CD247_pY142 GHDGLpYQGLSTATK) of the same molecule?
A: Its value is 0.4.

Q: And the “(QT-TrM)/mean” value (peptide CLPTM1L_pY527 VNEFGESpYEEK)?
A: The value was 0.3.

Q: What about the “(QT-TrM)/mean” value (peptide DBN1_pY34 ALpYTYEDGSDDLK) of the same molecule?
A: The value was 0.0.

Q: And the “(QT-TrM)/mean” value (peptide EXOC4_pY51 LEEApYEK)?
A: Its value is 0.5.

Q: What about the “(QT-TrM)/mean” value (peptide HCLS1_pY175 AALGpYDYK) of the same molecule?
A: Its value is 0.3.

Q: What about the “(QT-TrM)/mean” value (peptide ITK_pY512 FVLDDQpYTSSTGTK) of the same molecule?
A: Its value is 1.0.

Q: What about the “(QT-TrM)/mean” value (peptide LAT_pY110 DSDGANSVASpYENEGASGlR) of the same molecule?
A: The value was −0.2.

Q: What about the “(QT-TrM)/mean” value (peptide LAT_pY220 EpYVNVSQELHPGAAK) of the same molecule?
A: Its value is 0.2.

Q: And the “(QT-TrM)/mean” value (peptide LCP1_pY300 AYpYHLLEQVAPK)?
A: Its value is 0.4.

Q: What about the “(QT-TrM)/mean” value (peptide LIMD2_pY102 GNpYDEGFGR) of the same molecule?
A: The value was 0.0.

Q: What about the “(QT-TrM)/mean” value (peptide PJA2_pY28 AVWPKPAGGpYQTITGR) of the same molecule?
A: Its value is 0.4.

Q: And the “(QT-TrM)/mean” value (peptide PLCG2_pY1245 EFSVNENQLQLpYQEK)?
A: The value was 1.2.

Q: What about the “(QT-TrM)/mean” value (peptide PTPN7_pY149 AQSQEDGDpYINANYIR) of the same molecule?
A: The value was 0.0.

Q: What about the “(QT-TrM)/mean” value (peptide RBMX_pY335 SDLpYSSGR) of the same molecule?
A: Its value is 0.6.

Q: And the “(QT-TrM)/mean” value (peptide RFTN1_pY20 RPGNIpYSTLK)?
A: Its value is 0.3.

Q: And the “(QT-TrM)/mean” value (peptide SIT1_pY148 pYSEVVLDSEPK)?
A: Its value is −0.2.

Q: And the “(QT-TrM)/mean” value (peptide SPEN_pY1399 ASALpYESSR)?
A: Its value is −0.1.

Q: And the “(QT-TrM)/mean” value (peptide THUMPD1_pY22 AQpYVLAK)?
A: The value was −0.2.

Q: What about the “(QT-TrM)/mean” value (peptide TLR7_pY1041 NALATDNHVApYSQVFK) of the same molecule?
A: Its value is 0.1.

Q: What about the “(QT-TrM)/mean” value (peptide TRAF3IP3_pY178/179 GQQIpYpYHK) of the same molecule?
A: The value was 0.9.

Q: And the “(QT-TrM)/mean” value (peptide TRAF3IP3_pY179 GQQIYpYHK)?
A: The value was 1.5.

Q: And the “(QT-TrM)/mean” value (peptide ZAP70_pY164 MPWpYHSSLTR)?
A: The value was 0.2.

Q: And the “(QT-TrM)/mean” value (peptide ZAP70_pY292 IDTLNSDGpYTPEPAR)?
A: The value was 0.3.
